# Laboratory results published in article PMC9995077 (Science Advances, 2023).
# B1: Atg11-CBP (tandem affinity-purified Atg11) (natural protein)
# chain: MADADEYSTAPTQQEITPLQTTATIINAISGECITTNVDFFVSLDKFKQFIARKWKIPPDQLLILLPYGNKLKPSMFKELLINRSFTLNDFYVYDRRLFSLVSKPTPTNLLTSKDSNPMNSPNSNDLTETLEYLIKNSHISQYQGSDTIMIKPMPSPLEDADVDLSRLNYHSVTSLLTTNLGWLSALEIDVHYFKSLIPDIIAHIKRIFDGLTVCSQYLKLYCFDVESLYNSNVQFLNQLVDNGMTSKWEKCFNDTLSKLTALEGDSLQKFINIESLLENEKSVKILNHSINGKLNKIKREIDENASFRDIITVNIDRLRQMFTPNESKFELEDQMAESFEVLVSEMRTRSRNVLDKEEEEFNSQEFLKSMNVMLEKDKKESVKTLFTISQALYSQIGELIDLKKSLQKHAVAILGNIAFTQMEILGIKRLLLNECNKDLELYKKYEVEFAQVEDLPLIYGLYLIEKYRRLSWFQQILSFISNFNQDLELFKQNELRTRNKWVKNFGSIATVFCEDLLSSSDFKRLNEYHSHTSPPNEDEEDENENSIANYRQDLVKVSQAIDNYMTQIKETDVSEPIIDLLSKTLFETKRFHIIYSNFKNNNNNSSNGNSISPEGSIALKSDDVVKGYKTRIKKLESLLHEFQYSDIGHWPQGVLNTHLKPFRGSATSINKKKFLGASVLLEPANISEVNIDSVSQANNHQIQELESNVDDLLHQLQLLKEENNRKSMQISEMGKKISDLEVEKTAYRETLTNLNQELARLTNEEQSHRTEIFTLNASFKKQLNDIISQDNEKIEKLTGDYDDVSKSRERLQMDLDESNKKHEQEVNLLKADIERLGKQIVTSEKSYAETNSSSMEKGEKFETIPLAEDPGRENQISAYTQTLQDRIFDIISTNIFILENIGLLLTFDNNNNIQIRRVKGLKKGTAQSNILDESTQMLDAHDNSLIKSPVFQKLKDEYELIKSVANGSEKDTQQSIFLGNITQLYDNKLYEVAVIRRFKDIETLAKKLTKENKIKRTLLERFQREKVTLRNFQIGDLALFLPTRENVNSVGSMSSSTSSLSSSFSSVDLSTPPPLDAMSIQSSPSVIHSNVINQASISGRDKNKLMRPWAAFTAFEESTRYFLKDEKGLTKGKEWFVGRIVTLEHFVADSPSNNPFRLPKGSVWFQVTAVVVSYQGV
# What was measured:
# [1] = target: Ino80-K929R-FLAG (S. cerevisiae, UniProt P53115 1-1489, K929R); assay: co-IP
# [2] = target: Ino80-FLAG (endogenously expressed FLAG-tagged Ino80) (S. cerevisiae (endogenous in yeast …, UniProt P53115 1-1489)); assay: co-IP
# Chain of Ino80-FLAG (endogenously expressed FLAG-tagged Ino80) (S. cerevisiae (P53115 whole entry): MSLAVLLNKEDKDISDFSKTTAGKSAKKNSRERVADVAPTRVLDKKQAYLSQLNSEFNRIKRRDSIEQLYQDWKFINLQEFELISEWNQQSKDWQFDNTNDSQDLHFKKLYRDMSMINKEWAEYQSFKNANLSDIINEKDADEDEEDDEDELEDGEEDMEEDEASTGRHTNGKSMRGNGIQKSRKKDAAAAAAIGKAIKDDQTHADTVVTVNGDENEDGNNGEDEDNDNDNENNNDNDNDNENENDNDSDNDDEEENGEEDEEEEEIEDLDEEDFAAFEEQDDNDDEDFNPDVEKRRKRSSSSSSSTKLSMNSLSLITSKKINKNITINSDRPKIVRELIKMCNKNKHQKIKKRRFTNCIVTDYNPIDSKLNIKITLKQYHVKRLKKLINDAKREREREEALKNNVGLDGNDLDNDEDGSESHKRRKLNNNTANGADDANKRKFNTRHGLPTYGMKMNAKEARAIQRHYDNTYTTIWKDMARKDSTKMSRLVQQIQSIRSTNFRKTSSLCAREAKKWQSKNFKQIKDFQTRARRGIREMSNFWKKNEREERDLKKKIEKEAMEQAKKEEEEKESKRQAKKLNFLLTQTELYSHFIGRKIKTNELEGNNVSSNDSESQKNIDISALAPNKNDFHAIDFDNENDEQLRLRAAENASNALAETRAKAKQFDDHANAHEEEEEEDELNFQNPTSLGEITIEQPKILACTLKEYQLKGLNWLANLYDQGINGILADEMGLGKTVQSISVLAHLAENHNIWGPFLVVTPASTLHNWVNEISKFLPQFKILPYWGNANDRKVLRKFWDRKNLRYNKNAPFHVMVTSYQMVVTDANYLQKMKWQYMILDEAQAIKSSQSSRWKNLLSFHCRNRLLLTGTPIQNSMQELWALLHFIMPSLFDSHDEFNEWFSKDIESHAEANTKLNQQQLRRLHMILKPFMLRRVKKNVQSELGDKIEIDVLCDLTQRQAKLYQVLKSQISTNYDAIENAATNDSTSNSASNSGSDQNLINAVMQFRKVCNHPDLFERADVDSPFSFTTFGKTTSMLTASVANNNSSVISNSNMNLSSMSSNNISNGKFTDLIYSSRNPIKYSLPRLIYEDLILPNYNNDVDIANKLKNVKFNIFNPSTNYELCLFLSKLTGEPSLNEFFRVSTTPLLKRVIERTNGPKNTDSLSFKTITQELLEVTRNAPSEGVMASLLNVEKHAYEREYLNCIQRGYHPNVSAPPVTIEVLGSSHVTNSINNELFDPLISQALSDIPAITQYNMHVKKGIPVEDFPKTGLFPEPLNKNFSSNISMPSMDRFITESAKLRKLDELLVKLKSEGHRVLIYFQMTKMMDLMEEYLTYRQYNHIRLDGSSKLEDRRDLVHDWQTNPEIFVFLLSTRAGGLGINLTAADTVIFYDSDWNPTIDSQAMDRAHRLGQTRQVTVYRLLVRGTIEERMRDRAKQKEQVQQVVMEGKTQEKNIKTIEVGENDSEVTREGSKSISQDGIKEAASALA
# Chain of Ino80-K929R-FLAG (P53115 whole entry K929R): as the sequence (P53115 whole entry) above, with K929R counted along it
binder,measurement,setting,value
B1,binding result,[1],binds
same,binding result,[2],binds
